Results as given in US20020037538A1, “Compositions, kits, and methods for identification, assessment, prevention, and therapy of psoriasis” (priority 2000, published 2002).

How the values were obtained:
[1] = test system: psoriatic plaque; test: Psoriasis Severity Index (PSI) score at the lesion biopsy site during treatment (Example 3); type: in vivo, human; details: for PSI score: seen at weeks 8 and 12
Experimental: Three subjects with extensive psoriasis (>10% body surface area affected) were treated with […] of rhIL-11 subcutaneously every day for 8 weeks (Trepicchio et al. (1999) J. Clin. Invest. 104:1527-1537). The dose selection of rhIL-11 was based on the outcome of a clinical trial in subjects with Crohn's disease, where biological activity was observed. […] Upon enrollment, a psoriatic plaque was chosen for weekly assessment of lesion severity. […] In addition, before initiation of treatment, a 6-mm punch biopsy was taken from uninvolved skin at a location of the patent's choosing. Biopsies were equally divided for immunohistochemical analysis and for RNA preparation. Global clinical assessment of each subject was based on the Psoriasis Area and Severity Index (PASI) score in each subject before and during therapy as described previously (Gottlieb, et al. (1992) J. Invest. Dermatol. 98:302-309). The grading system used to measure local disease activity at the lesion biopsy site was the Psoriasis Severity Index (PSI). This index grades individual psoriasis lesions for scale, erythema, and induration on a 0- to 6- point scale for each parameter (0, absent, 1, trace, 2, mild, 3, mild to moderate, 4, moderate, 5, moderate to severe, and 6, severe). The final score is the sum of the individual parameters for a range of 0-18 (Fredriksson and Pettersson (1978) Dermatologica 157: 238-244; and Coven et al. (1997) Arch. Dermatol. 133:1514-1522). Histopathological assessment was performed on one-half of the 6-mm punch biopsy. […] Sections were reacted with antibodies to CD3, CD8, K16, Ki67, ICAM-1, or HLA-FR and processed for immunohistochemistry as described previously. Computer-assisted image analysis was used to quantify epidermal thickness and the number of CD3+, CD8+, or Ki67+ cells in tissue sections as described (Gottlieb et al. (1995) Nat. Med. 1:442-447).

[2] = test system: marker genes in psoriatic lesional skin; test: GeneChip marker analysis of lesional skin biopsies during rhIL-11 or cyclosporin A treatment (Example 3); type: in vivo, human
Experimental: Labeled RNA was prepared from clones containing a T7 RNA polymerase promoter site by incorporating labeled ribonucleotides in an in vitro transcription (IVT) reaction. Either biotin-labeled or fluorescein-labeled UTP and CTP (1:3 labeled to unlabeled) plus unlabeled ATP and GTP were used for the reaction with 2500 U of T7 RNA polymerase. Following the reaction, unincorporated nucleotide triphosphates were removed using a size-selective membrane (Mircrocon-100, Amicon, Beverly, Mass.). The total molar concentration of RNA was based on a measurement of the absorbance at 260 nm. Following quantitation of RNA amounts, RNA was fragmented randomly to an average length of approximately 50 bases by heating at 94° C. in 40 mM Tris-acetate pH 8.1, 100 mM potassium acetate, 30 mM magnesium acetate, for 30 to 40 min. Fragmentation reduces possible interference from RNA secondary structure, and minimizes the effects of multiple interactions with closely spaced probe molecules. For material made directly from cellular RNA, cytoplasmic RNA was extracted from cells by the method of Favaloro et al. ((1980) Methods Enzymol. 65: 718-749), and poly (A) RNA was isolated with an oligo dT selection step (PolyAtract, Promega, Madison, Wis.). […] The total molar concentration of labeled cRNA was determined from the absorbance at 260 nm and assuming an average RNA size of 1000 ribonucleotides. […]
The hybridization solutions contained 0.9 M NaCl, 60 mM NaH2PO4, 6 mM EDTA, and 0.005% Triton X-100, adjusted to pH 7.6 (referred to as 6×SSPE-T). […] When biotin-labeled RNA was used, the hybridized RNA was stained with a streptavidin-phycoerythrin conjugate (Molecular Probes, Eugene, Oreg.) prior to reading. […] The arrays were read using a scanning confocal microscope made for Affy metrix by Molecular Dynamics (commercially available through Affymetrix, Santa Clara, Calif.) The scanner uses an argon ion laser as the excitation source, with the emission detected by a photomultiplier tube through either a 530 nm bandpass filter (fluorescein), or a 560 nm longpass filter (phycoerythrin). […]

[3] = test system: plaque psoriasis; test: Response to therapy by clinical and histopathological criteria (Example 4); type: in vivo, human; details: treated for 8 weeks
From the text: (§1) Patients with extensive plaque psoriasis (>10% body surface area affected) were considered eligible for entry into the study. […] At the start of enrollment, a psoriatic plaque was chosen for weekly assessment of lesion severity scores by the study coordinator. A 6 mm punch biopsy was taken of this lesional skin prior to rhIL-11 or cyclosporin treatment and at weeks 1, 4, 8 and 12 during IL-11 or cyclosporin treatment. In addition, prior to initiation of treatment, a 6 mm punch biopsy was taken from uninvolved skin at a location of the patient's choosing. Biopsies were equally divided for immunohistochemical analysis and for RNA preparation. Normal skin was obtained from healthy volunteers.
Sections were reacted with antibodies to CD3, CD8, keratin 16, Ki67, ICAM-1, or HLA-DR and processed for immunohistochemistry as previously described (Trepicchio et al., supra). Computer-assisted image analysis was used to quantify epidermal thickness and the number of CD3+, CD8+, or Ki67+ cells in tissue sections as described. The grading system used to measure clinical disease activity was the PSI score, described above.
RhIL-11 was administered to patients by a subcutaneous route at either a dose of 5 ug/kg/day or a single 1 mg or 2 mg dose administered once weekly. Cyclopsorin A was administered at a dose of 5 μg/kg/day (Gottlieb et al., supra).

[4] = test system: 165 genes differentially expressed between lesional and non-lesional skin; test: Gene chip / self-organizing map analysis of lesional skin over the course of drug treatment (Example 4); type: in vivo, human
From the text: as §1
Total RNA was isolated from 6 mm full thickness skin biopsies using the RNeasy mini kit (Qiagen, Hilden, Germany). 2 μg total RNA was converted to cDNA by priming with an oligo-dT primer containing a T7 RNA polymerase promoter at the 5′ end. RNA was reverse transcribed with 200 units Superscript RT II at 50° C. for 1 hour in 1×first-strand buffer, 10 mM DTT and 0.5 mM each dNTP (Gibco BRL, Gaithersburg, Md.). […] RNA was concentrated and the amount measured using a spectrophotometer. […]

[5] = test system: S100A12, HBP17, K16, CCNF, SCYA2, PRKMK3, ID4, CST6 and TNXA mRNA; test: Quantitative RT-PCR of early responding genes in treated patients; type: in vivo, human; details: responding patients but not non-responding patients
Experimental: Quantitative RT-PCR was performed as previously described (Trepicchio et al., supra). RNA samples from patient biopsies were treated with 10U of RQ1 DNase I (Promega) for 30 minutes at 37° C. […] Sequence-specific amplification was detected as an increased fluorescent signal of 6-FAM during the amplification cycle. Quantitation of gene-specific message levels was based on a comparison of the fluorescent intensity in the unknown mRNA sample to the fluorescent intensity from a standard curve of known mRNA levels. […] Levels of gene-specific messages were graphed as normalized message units as determined from the standard curve. […]
Quantitative measures of gene expression changes were statistically evaluated using the JMP statistical discovery software package (SAS Institute, Inc., Cary, N.C.). […] Differences between non-lesional to lesional skin were analyzed using 2-tailed paired T-test. […]
Changes in gene expression levels that precede clinical improvement may identify genes that play a potential causative role in disease progression or may be early markers of clinical efficacy. Quantitative RT-PCR was used to analyze gene expression changes for these early responding genes in a larger patient population. […]

[6] = test system: psoriasis patients; details: Trepicchio et al. (1999); cited from earlier work
[7] = test system: proinflammatory cytokine production; details: in part through inhibition of NF-κKB nuclear translocation; Trepicchio et al. (1997); cited from earlier work

B1: rhIL-11: recombinant human IL-11, experimental immune modulatory cytokine (protein, UniProt P20809 22-199, looked up)
Interleukin-11: PGPPPGPPRVSPDPRAELDSTVLLTRSLLADTRQLAAQLRDKFPADGDHNLDSLPTLAMSAGALGALQLPGVLTRLRADLLSYLRHVQWLRRAGGSSLKTLEPELGTLQARLDRLLRRLQLLMSRLALPQPPPDPPAPPLAPPSSAWGGIRAAHAILGGLHLTLDWAVRGLLLLKTRL
response to the treatment as assessed by PSI scores ([1]; Patient #202, rhIL-11): did not respond to the treatment | PSI scores ([1]; Patient #202, rhIL-11 treatment, throughout the course of the study): 9-11 | PSI score ([1]; rhIL-11, first value of 'respectively' (Patient #203)): 4 | PSI score ([1]; rhIL-11, second value of 'respectively' (Patient #208)): 5 | expression levels of the bulk of the markers ([2]; Patient #202, rhIL-11, throughout the study): similarly unchanged | expression of the preponderance of the markers ([2]; Patients #203 and 208, rhIL-11, by week 8 compared to the beginning of the study): decrease in expression at least two-fold | expression of the markers ([2]; Patients #203 and 208, rhIL-11, by week 12 compared to the beginning of the study): nearly all of the markers decreased in expression | patients considered to have responded to therapy [3]: 8 out of 15 | differentially regulated genes that returned to normal or uninvolved levels at time points preceding clinical improvement ([4]; FIG. 6, Group I): 36 genes | levels of expression of 36 genes including HBP17, SCYA2, PRKMK3, GNA15, PHB and MTX ([4]; responding patients at week 1 of therapy, not in non-responding patients): change significantly | earliest time at which changes in gene expression were observed [5]: 1 week | activity in psoriasis patients [6]: improve clinical and histopathological scores | proinflammatory cytokine production [7]: reduce proinflammatory cytokine production
